Laboratory results: the Immune Epitope Database (IEDB)

Columns and labels:
Assay in all cases: IEDB peptide-MHC binding, cellular MHC/competitive/fluorescence; ≥ and ≤ were set here for values at or beyond the usual limits of such assays
HLA-A*02:01 = biological target: HLA-A*02:01
HLA-A*68:02 = biological target: HLA-A*68:02
HLA-A*02:02 = biological target: HLA-A*02:02
HLA-A*02:03 = biological target: HLA-A*02:03
HLA-A*02:06 = biological target: HLA-A*02:06
[1] = source organism: Mammarenavirus machupoense
[2] = source organism: Vaccinia virus WR
[3] = source organism: Influenza A virus
[4] = source organism: Mammarenavirus choriomeningitidis
[5] = source organism: Mammarenavirus guanaritoense
[6] = source organism: Mammarenavirus brazilense

Sequence	IC50 (HLA-A*02:01; [2])	IC50 (HLA-A*68:02; [2])	IC50 (HLA-A*02:02; [2])	IC50 (HLA-A*02:03; [2])	IC50 (HLA-A*02:06; [2])	other results
YNCKCCWFA						IC50 (HLA-A*02:01; [1]): 42.9 µM; IC50 (HLA-A*68:02; [1]): 52.9 µM; IC50 (HLA-A*02:02; [1]): 16.1 µM; IC50 (HLA-A*02:03; [1]): 31.9 µM; IC50 (HLA-A*02:06; [1]): ≥ 70 µM
ATQFNFNGHT	38.6 µM	23.3 µM	28.6 µM	11.5 µM	26.4 µM	
DVCKKNLDL	19.5 µM	40.6 µM	25.4 µM	8.02 µM	16.3 µM	
ALSYSAGA						IC50 (HLA-A*02:01; [3]): 39.3 µM; IC50 (HLA-A*68:02; [3]): ≥ 70 µM; IC50 (HLA-A*02:02; [3]): 16.9 µM; IC50 (HLA-A*02:03; [3]): 10.7 µM; IC50 (HLA-A*02:06; [3]): ≥ 70 µM
EMQLKIDKLT	55.9 µM	43.1 µM	9.66 µM	6.82 µM	≥ 70 µM	
PTRTWKVLSI	≥ 70 µM	42 µM	41.9 µM	15.1 µM	≥ 70 µM	
VATTHSWI						IC50 (HLA-A*02:01; [3]): ≥ 70 µM; IC50 (HLA-A*68:02; [3]): 56.2 µM; IC50 (HLA-A*02:02; [3]): ≥ 70 µM; IC50 (HLA-A*02:03; [3]): 62.3 µM; IC50 (HLA-A*02:06; [3]): ≥ 70 µM
PAHLINKLL	11.3 µM	11.2 µM	6.69 µM	6.31 µM	42.5 µM	
EIITGNKVKT	≥ 70 µM	≥ 70 µM	≥ 70 µM	≥ 70 µM	≥ 70 µM	
ITETIPIGM	≥ 70 µM	6.13 µM	12.4 µM	42.8 µM	7.69 µM	
PTLFGRGVI	≥ 70 µM	≥ 70 µM	30.3 µM	6.73 µM	64.9 µM	
GANGSTAEQL	67.6 µM	13.3 µM	7.28 µM	45.3 µM	55.2 µM	
PVDLVKSSFV	39.3 µM	10.8 µM	6.61 µM	9.64 µM	26.6 µM	
VLKAMHDKKI	≥ 70 µM	≥ 70 µM	48.9 µM	33.9 µM	≥ 70 µM	
LTGNNTITT	11.2 µM	8.24 µM	5.75 µM	5.62 µM	8.69 µM	
CVRNLEELTT	45.2 µM	33.1 µM	12.6 µM	15.2 µM	43 µM	
PAEMLANI						IC50 (HLA-A*02:01; [3]): ≥ 70 µM; IC50 (HLA-A*68:02; [3]): ≥ 70 µM; IC50 (HLA-A*02:02; [3]): ≥ 70 µM; IC50 (HLA-A*02:03; [3]): ≥ 70 µM; IC50 (HLA-A*02:06; [3]): ≥ 70 µM
GTMPSLTMAC						IC50 (HLA-A*02:01; [4]): 34.7 µM; IC50 (HLA-A*68:02; [4]): ≥ 70 µM; IC50 (HLA-A*02:02; [4]): 25.3 µM; IC50 (HLA-A*02:03; [4]): 16.4 µM; IC50 (HLA-A*02:06; [4]): 12.1 µM
PTEMVDVSM	47.4 µM	52.2 µM	10.6 µM	41.3 µM	40.2 µM	
AIDRQVSVKL	14 µM	52.3 µM	7.9 µM	13.1 µM	31.9 µM	
DIDLLFNEKL	5.79 µM	15.8 µM	11.2 µM	26.7 µM	25.7 µM	
TTELNIVDEI	35.9 µM	10.7 µM	38.7 µM	≥ 70 µM	21.4 µM	
TIESAKTKI	15.2 µM	52.6 µM	16.3 µM	54.1 µM	51.4 µM	

Sequence	IC50 (HLA-A*02:01; [2])	IC50 (HLA-A*68:02; [2])	IC50 (HLA-A*02:02; [2])	IC50 (HLA-A*02:03; [2])	IC50 (HLA-A*02:06; [2])	other results
AINKCVDIFT	15.9 µM	39 µM	25.3 µM	26.4 µM	38.5 µM	
PLTGNNTITT	≥ 70 µM	49.3 µM	7.67 µM	29.5 µM	≥ 70 µM	
CVRLNNPVIL	13.4 µM	≥ 70 µM	8.56 µM	5.4 µM	45.1 µM	
NILGGVLHT	41.7 µM	≥ 70 µM	≥ 70 µM	20.6 µM	9.97 µM	
KNAGYLVGR						IC50 (HLA-A*02:01; [5]): 23 µM; IC50 (HLA-A*68:02; [5]): ≥ 70 µM; IC50 (HLA-A*02:02; [5]): 45.7 µM; IC50 (HLA-A*02:03; [5]): ≥ 70 µM; IC50 (HLA-A*02:06; [5]): ≥ 70 µM
DIMLPESDL	12.9 µM	13.4 µM	18.5 µM	35.8 µM	31.6 µM	
DAKRNSKSL	≥ 70 µM	≥ 70 µM	13.7 µM	49.7 µM	≥ 70 µM	
PTDMLKLFT	≥ 70 µM	≥ 70 µM	29.1 µM	47 µM	69.8 µM	
LAYYNSCML	46.1 µM	13.3 µM	12.8 µM	15.5 µM	21.5 µM	
KTEHCDDFMT	7.51 µM	≥ 70 µM	7.82 µM	37.7 µM	11.6 µM	
VAKCCSKTNT	20.9 µM	≥ 70 µM	14.7 µM	21.7 µM	40.7 µM	
AAFEDLRV						IC50 (HLA-A*02:01; [3]): 31.4 µM; IC50 (HLA-A*68:02; [3]): ≥ 70 µM; IC50 (HLA-A*02:02; [3]): 28.8 µM; IC50 (HLA-A*02:03; [3]): 7.32 µM; IC50 (HLA-A*02:06; [3]): 18.4 µM
GTKGKLYIAL	16.6 µM	7.51 µM	9.07 µM	7.84 µM	37.4 µM	
DVEKRILNT	9.33 µM	≥ 70 µM	5.82 µM	6.72 µM	≥ 70 µM	
NVDVGCLLT	47.3 µM	≥ 70 µM	9.85 µM	14 µM	64.9 µM	
NVKDYSIV						IC50 (HLA-A*02:01; [3]): ≥ 70 µM; IC50 (HLA-A*68:02; [3]): 11.3 µM; IC50 (HLA-A*02:02; [3]): ≥ 70 µM; IC50 (HLA-A*02:03; [3]): 6.53 µM; IC50 (HLA-A*02:06; [3]): ≥ 70 µM
ALSYSTGA						IC50 (HLA-A*02:01; [3]): ≥ 70 µM; IC50 (HLA-A*68:02; [3]): ≥ 70 µM; IC50 (HLA-A*02:02; [3]): ≥ 70 µM; IC50 (HLA-A*02:03; [3]): 25.8 µM; IC50 (HLA-A*02:06; [3]): ≥ 70 µM
ATRRMIQL						IC50 (HLA-A*02:01; [3]): ≥ 70 µM; IC50 (HLA-A*68:02; [3]): ≥ 70 µM; IC50 (HLA-A*02:02; [3]): ≥ 70 µM; IC50 (HLA-A*02:03; [3]): ≥ 70 µM; IC50 (HLA-A*02:06; [3]): ≥ 70 µM
ITGNKVKTEL	≥ 70 µM	≥ 70 µM	≥ 70 µM	≥ 70 µM	≥ 70 µM	
TVPSERGL						IC50 (HLA-A*02:01; [3]): 52.9 µM; IC50 (HLA-A*68:02; [3]): 65 µM; IC50 (HLA-A*02:02; [3]): ≥ 70 µM; IC50 (HLA-A*02:03; [3]): ≥ 70 µM; IC50 (HLA-A*02:06; [3]): ≥ 70 µM
DLAIKQYGDI	≥ 70 µM	7.72 µM	17.9 µM	33.3 µM	46.8 µM	
ELTNKKYRCM	≥ 70 µM	13.8 µM	≥ 70 µM	≥ 70 µM	≥ 70 µM	
SADNHPKMI	14.5 µM	≥ 70 µM	8.18 µM	43.5 µM	≥ 70 µM	

Sequence	IC50 (HLA-A*02:01; [2])	IC50 (HLA-A*68:02; [2])	IC50 (HLA-A*02:02; [2])	IC50 (HLA-A*02:03; [2])	IC50 (HLA-A*02:06; [2])	other results
QARQMVQAMRA						IC50 (HLA-A*02:01; [3]): ≥ 70 µM; IC50 (HLA-A*68:02; [3]): 20 µM; IC50 (HLA-A*02:02; [3]): 24.9 µM; IC50 (HLA-A*02:03; [3]): ≥ 70 µM; IC50 (HLA-A*02:06; [3]): 55.2 µM
SAAFEDLRL						IC50 (HLA-A*02:01; [3]): ≥ 70 µM; IC50 (HLA-A*68:02; [3]): 27.1 µM; IC50 (HLA-A*02:02; [3]): 15.4 µM; IC50 (HLA-A*02:03; [3]): 9.24 µM; IC50 (HLA-A*02:06; [3]): 30.6 µM
YNFSLSAAV						IC50 (HLA-A*02:01; [1]): 7.51 µM; IC50 (HLA-A*68:02; [1]): 29.7 µM; IC50 (HLA-A*02:02; [1]): 46.3 µM; IC50 (HLA-A*02:03; [1]): ≥ 70 µM; IC50 (HLA-A*02:06; [1]): ≥ 70 µM
PTIEDDKIVT	≥ 70 µM	≥ 70 µM	13.8 µM	20.6 µM	≥ 70 µM	
TATKRIRMA						IC50 (HLA-A*02:01; [3]): 34 µM; IC50 (HLA-A*68:02; [3]): ≥ 70 µM; IC50 (HLA-A*02:02; [3]): 48.4 µM; IC50 (HLA-A*02:03; [3]): 24.1 µM; IC50 (HLA-A*02:06; [3]): 35.4 µM
DVGCLLTDT	≥ 70 µM	≥ 70 µM	≥ 70 µM	65.4 µM	≥ 70 µM	
NLCKYLRGHT	37.9 µM	12.3 µM	39.6 µM	8.04 µM	≥ 70 µM	
NLPFDKTTIMA						IC50 (HLA-A*02:01; [3]): 25 µM; IC50 (HLA-A*68:02; [3]): 11 µM; IC50 (HLA-A*02:02; [3]): 7.7 µM; IC50 (HLA-A*02:03; [3]): 8.43 µM; IC50 (HLA-A*02:06; [3]): ≥ 70 µM
ITDQTVNICI	7.2 µM	51.2 µM	≥ 70 µM	≥ 70 µM	10.4 µM	
LAEYIRHRNT	≥ 70 µM	52.4 µM	36.1 µM	14 µM	≥ 70 µM	
ATAILRKA						IC50 (HLA-A*02:01; [3]): 52.9 µM; IC50 (HLA-A*68:02; [3]): ≥ 70 µM; IC50 (HLA-A*02:02; [3]): 61.8 µM; IC50 (HLA-A*02:03; [3]): 42.3 µM; IC50 (HLA-A*02:06; [3]): ≥ 70 µM
TIEDDKIVTM	13.3 µM	38.8 µM	17 µM	17.2 µM	26.1 µM	
LIISTDQDT	30.1 µM	≥ 70 µM	≥ 70 µM	≥ 70 µM	≥ 70 µM	
AVSVYGAIT	7.23 µM	6.28 µM	11.4 µM	9.62 µM	14.2 µM	
DVGCLLTDTI	6.84 µM	27.4 µM	10.7 µM	15.6 µM	10 µM	
IAYERMCNIL						IC50 (HLA-A*02:01; [3]): ≥ 70 µM; IC50 (HLA-A*68:02; [3]): 24.6 µM; IC50 (HLA-A*02:02; [3]): 24 µM; IC50 (HLA-A*02:03; [3]): 16.5 µM; IC50 (HLA-A*02:06; [3]): 7.91 µM
SVDEEGCGPL	32.1 µM	35.3 µM	14.8 µM	38.7 µM	12.7 µM	
DVKVLAARL	12 µM	7.95 µM	6.23 µM	10.7 µM	10 µM	
ICFWSTLFFT						IC50 (HLA-A*02:01; [6]): 11.9 µM; IC50 (HLA-A*68:02; [6]): 47.6 µM; IC50 (HLA-A*02:02; [6]): 33.2 µM; IC50 (HLA-A*02:03; [6]): 35.1 µM; IC50 (HLA-A*02:06; [6]): 34.9 µM
VIRHVDGKIL	≥ 70 µM	≥ 70 µM	≥ 70 µM	33.4 µM	≥ 70 µM	
NVRGSGMRILV						IC50 (HLA-A*02:01; [3]): 20.8 µM; IC50 (HLA-A*68:02; [3]): 11.2 µM; IC50 (HLA-A*02:02; [3]): ≥ 70 µM; IC50 (HLA-A*02:03; [3]): 46.1 µM; IC50 (HLA-A*02:06; [3]): 54.7 µM
PVETLFGSYI	≥ 70 µM	7.16 µM	13.7 µM	11.8 µM	≥ 70 µM	
SAEDNYLAKL	≥ 70 µM	≥ 70 µM	≥ 70 µM	≥ 70 µM	≥ 70 µM	
